Molecular target: the molecule itself
Assay: SEC; 25 ug purified FXIIIA2B2 incubated with 46.2 U/mL thrombin and 25 mM CaCl2, 20 mM Tris, 120 mM NaCl, pH 7.4, 60 minutes at 30 degrees; Superdex 200 PC 3.2/30; peaks checked by native PAGE and mass spectrometry

B1: coagulation factor XIII B subunit (natural protein, human, UniProt P05160 21-661, looked up)
chain: EEKPCGFPHVENGRIAQYYYTFKSFYFPMSIDKKLSFFCLAGYTTESGRQEEQTTCTTEGWSPEPRCFKKCTKPDLSNGYISDVKLLYKIQENMRYGCASGYKTTGGKDEEVVQCLSDGWSSQPTCRKEHETCLAPELYNGNYSTTQKTFKVKDKVQYECATGYYTAGGKKTEEVECLTYGWSLTPKCTKLKCSSLRLIENGYFHPVKQTYEEGDVVQFFCHENYYLSGSDLIQCYNFGWYPESPVCEGRRNRCPPPPLPINSKIQTHSTTYRHGEIVHIECELNFEIHGSAEIRCEDGKWTEPPKCIEGQEKVACEEPPFIENGAANLHSKIYYNGDKVTYACKSGYLLHGSNEITCNRGKWTLPPECVENNENCKHPPVVMNGAVADGILASYATGSSVEYRCNEYYLLRGSKISRCEQGKWSSPPVCLEPCTVNVDYMNRNNIEMKWKYEGKVLHGDLIDFVCKQGYDLSPLTPLSELSVQCNRGEVKYPLCTRKESKGMCTSPPLIKHGVIISSTVDTYENGSSVEYRCFDHHFLEGSREAYCLDGMWTTPPLCLEPCTLSFTEMEKNNLLLKWDFDNRPHILHGEYIEFICRGDTYPAELYITGSILRMQCDRGQLKYPRCIPRQSTLSYQEPLRT
notes: human coagulation factor XIII B subunit from plasma, ten Sushi domains; 80 kDa; also called FXIIIB; FXIIIB2; source: purified as FXIIIA2B2 from plasma concentrate Fibrogammin P (CSL Behring), gel filtration on Superdex 200
binding result: binds

From article PMC4958977, “Revisiting the mechanism of coagulation factor XIII activation and regulation from a structure/functional perspective” (Scientific Reports, 2016)
